Measured values published in patent US20190382503A1 (published 2019).

What was measured:
human 5T4 on cells [1] = target: T1, human 5T4 on cells (human, UniProt Q13641 32-420); assay: flow cytometry, SKOV-3 cells, streptavidin-PE, normalized MFI of 2 pooled experiments
T1 construct: Human 5T4 on transfected cells (CHO-K1, CT26, B16) or endogenous on human tumour lines; the cell line is named under assay; also called trophoblast glycoprotein; TPBG
T1 sequence: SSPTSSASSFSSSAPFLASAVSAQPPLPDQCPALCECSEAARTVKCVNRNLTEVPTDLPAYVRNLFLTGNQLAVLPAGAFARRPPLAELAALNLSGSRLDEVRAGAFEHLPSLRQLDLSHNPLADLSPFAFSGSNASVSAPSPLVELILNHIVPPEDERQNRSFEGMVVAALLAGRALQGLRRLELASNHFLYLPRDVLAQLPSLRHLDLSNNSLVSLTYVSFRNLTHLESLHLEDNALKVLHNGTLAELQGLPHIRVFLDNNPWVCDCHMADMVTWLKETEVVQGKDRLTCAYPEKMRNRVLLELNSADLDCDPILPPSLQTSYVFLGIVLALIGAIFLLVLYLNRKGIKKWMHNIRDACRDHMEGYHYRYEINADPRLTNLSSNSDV
Protocol: (§1) Biotinylation: In order to detect ALG.APV-210 binding to 5T4-expressing cell lines, ALG.APV-210 was first biotinylated. The quality of the biotinylated protein and the impact on binding to its targets was assessed using ELISA.
(§2) FACS staining and analysis of 5T4-expressing cell lines: Prior to the FACS staining, all cell lines were characterized for their 5T4 expression levels using a receptor density kit (Quantum Simply Cellular, anti-human IgG, Bangs Laboratories, Inc). Adherent cell lines were cultured according to their supplier's instructions and were harvested from their cell culture flasks using Trypsin/EDTA, counted in R10 medium in a Burker chamber, and diluted in FACS buffer (PBS+0.5% BSA, 0.05% NaN₃) to a concentration of 4×10⁶ cells/mL. 50 μL (0.20×10⁶) of cell solution was added to a 96-well FACS staining plate (Falcon #351190). Cells were incubated for 20 min in 4° C. with 50 μL of the biotinylated ALG.APV-210 (2× final concentration). […] Cells were analysed for ALG.APV-210 binding using flow cytometry (FACSVerse) by gating on single cells. MFI values (secondary antibody only subtracted) from 1 out of 2 independent experiments, as well as normalized data and EC₅₀-values of pooled data from 2 experiments were determined and plotted using GraphPad Prism 7, non-linear regression log (agonist) vs. normalized response-variable slope.

human 5T4 on cells [2] = target: T1, human 5T4 on cells; assay: flow cytometry, BxPC-3 cells, streptavidin-PE, normalized MFI of 2 pooled experiments
Protocol: as §2, with “concentration). The antibodies were added in a serial dilution starting at 20 μg/mL titrating down in a 12 step 1/2 dilution down to 0.010 μg/mL.” for “concentration).”

human 5T4 on cells [3] = target: T1, human 5T4 on cells; assay: flow cytometry, CT26-hu5T4^int cells, streptavidin-PE, normalized MFI of 2 pooled experiments
Protocol: as §1, §2

human CD137 on cells [4] = target: T2, human CD137 on cells (human, UniProt Q07011 24-255); assay: flow cytometry, human CD8 T cells gated from CD3-stimulated PBMC, normalized MFI, 2 pooled experiments
T2 construct: Human CD137 on CHO-K1 transfectants, Jurkat/CD137 reporter cells or CD3-stimulated primary human CD8 T cells; cells named under assay; also called 4-1BB; TNFRSF9
T2 sequence (Q07011 24-255 limits assumed): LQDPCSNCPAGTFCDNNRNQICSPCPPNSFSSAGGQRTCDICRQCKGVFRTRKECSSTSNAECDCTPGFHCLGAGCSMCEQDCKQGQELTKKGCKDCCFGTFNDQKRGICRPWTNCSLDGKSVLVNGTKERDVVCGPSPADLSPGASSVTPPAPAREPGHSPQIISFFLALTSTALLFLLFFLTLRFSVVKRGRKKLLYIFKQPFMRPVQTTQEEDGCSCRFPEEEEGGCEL
Protocol: (§3) FACS staining and analysis of CD8 T cells: Following 48 h of incubation with or without CD3, human and cynomolgus PBMC were harvested, pooled, recounted and diluted in FACS buffer (PBS+0.5% BSA, 0.05% NaN₃) to a concentration of 5×10⁶ cells/mL. 50 μL (0.25×10⁶ cells) of cell solution was added to a 96-well FACS staining plate (Falcon #351190). Following 10 min of Fc-blocking in RT using Beriglobin (hIgG, 200 μg/mL), cells were washed in FACS buffer and then incubated for 1 h in 4° C. with 100 μL of the biotinylated ALG.APV-210 or negative control. The antibodies were added in a serial dilution starting either at 5 μg/mL titrating down in a 12 step 1/3 dilution down to 0.0003 μg/mL (exp 1) or 1 μg/mL titrating down in a 12 step 1/2 dilution down to 0.0005 μg/mL (exp 2). […] Cells were analysed for ALG.APV-210 binding using flow cytometry by gating on viable, single cells expressing CD3 and CD8. MFI values (FMO subtracted) from 2 independent experiments as well as normalized pooled data from 2 experiments and EC₅₀-values were determined and plotted using GraphPad Prism 7, non-linear regression log (agonist) vs. normalized response-variable slope, n=6 donors/group.

human 5T4 on cells [5] = target: T1, human 5T4 on cells; assay: flow cytometry, JAR cells, streptavidin-PE, normalized MFI of 2 pooled experiments
Protocol: as §1, §2

human CD137 on cells [6] = target: T2, human CD137 on cells; assay: flow cytometry, MFI of the CD137 positive CD8 T cells
Protocol: as §3, with “control.” for “control. The antibodies were added in a serial dilution starting either at 5 μg/mL titrating down in a 12 step 1/3 dilution down to 0.0003 μg/mL (exp 1) or 1 μg/mL titrating down in a 12 step 1/2 dilution down to 0.0005 μg/mL (exp 2).”
(§4) ALG.APV-210 binding was also assessed by looking at the percentage of CD8 T cells bound by ALG.APV-210. […] The binding EC₅₀ values were also calculated on the MFI of the CD137 positive cells, and the results was an EC₅₀ of 0.17 nM for binding to human CD137 and 0.20 nM for cynomolgus monkey CD137.

[7] = target: T3, cynomolgus CD137 on cells (cynomolgus macaque, UniProt A9YYE7 24-254); assay: as above
T3 construct: whole, on cells; also called CHO-K1/cynomolgus CD137; cynomolgus monkey CD137
T3 sequence (A9YYE7 entry or part of it): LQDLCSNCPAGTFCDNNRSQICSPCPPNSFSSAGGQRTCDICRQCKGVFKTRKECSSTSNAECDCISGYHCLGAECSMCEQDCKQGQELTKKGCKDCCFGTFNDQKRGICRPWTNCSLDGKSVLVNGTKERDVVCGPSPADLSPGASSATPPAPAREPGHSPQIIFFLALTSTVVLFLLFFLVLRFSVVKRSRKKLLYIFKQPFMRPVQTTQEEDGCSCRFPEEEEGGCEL
Protocol: as §3, with “control.” for “control. The antibodies were added in a serial dilution starting either at 5 μg/mL titrating down in a 12 step 1/3 dilution down to 0.0003 μg/mL (exp 1) or 1 μg/mL titrating down in a 12 step 1/2 dilution down to 0.0005 μg/mL (exp 2).”
as §4

B1: biotinylated ALG.APV-210 (bispecific antibody)
chain: EVQLLESGGGLVQPGGSLRLSCAASGFTFSHGSMYWVRQAPGKGLEWVSSISSGSGSTYYADSVKGRFTISHDNSKNTLYLQMNSLRAEDTAVYYCARSSYYGSYYSIDYWGQGTLVTVSSGGGGSGGGGSGGGGSGGGGSDIQMTQSPSSLSASVGDRVTITCRASQSISSYLNWYQQKPGKAPKLLIYAASSLQSGVPSRFSGSGSGTDFTLTISSLQPEDFATYYCQQYYDNLPTFGQGTKLEIKEPKSSDKTHTCPPCPAPEAAGAPSVFLFPPKPKDTLMISRTPEVTCVVVDVSHEDPEVKFNWYVDGVEVHNAKTKPREEQYNSTYRVVSVLTVLHQDWLNGKEYKCAVSNKALPAPIEKTISKAKGQPREPQVYTLPPSRDELTKNQVSLTCLVKGFYPSDIAVEWESNGQPENNYKTTPPVLDSDGSFFLYSKLTVDKSRWQQGNVFSCSVMHEALHNHYTQKSLSLSPGSGGGGSGGGGSGGGGSPSEVQLLESGGGLVQPGGSLRLSCAASGFTFSSYAMSWVRQAPGKCLEWVSAISGSGGSTYYADSVKGRFTISRDNSKNTLYLQMNSLRAEDTAVYYCARYYGGYYSAWMDYWGQGTLVTVSSGGGGSGGGGSGGGGSGGGGSDIQMTQSPSSLSASVGDRVTITCRASQSISSFLNWYQQKPGKAPKLLIYAASSLQSGVPSRFSGSGSGTDFTLTISSLQPEDSATYYCQQTYGYLHTFGCGTKLEIKR
modifications: biotinylated (sites not given)
- EC50 (human 5T4 on cells [1]): 15 nM
- EC50 (human 5T4 on cells [2]): 20 nM
- EC50 (human 5T4 on cells [3]): 12 nM
- EC50 (human CD137 on cells [4]): 0.235 nM
- EC50 (human 5T4 on cells [5]): 9 nM
- EC50 (human CD137 on cells [6]): 0.17 nM
- EC50 [7]: 0.2 nM
